Patent US20220378912A1 (Novartis, published 2022)

T1: recombinant human P-selectin (human, UniProt P16109 42-771, limits assumed)
T1 construct: Coated on ELISA plates
T1 sequence (looked up): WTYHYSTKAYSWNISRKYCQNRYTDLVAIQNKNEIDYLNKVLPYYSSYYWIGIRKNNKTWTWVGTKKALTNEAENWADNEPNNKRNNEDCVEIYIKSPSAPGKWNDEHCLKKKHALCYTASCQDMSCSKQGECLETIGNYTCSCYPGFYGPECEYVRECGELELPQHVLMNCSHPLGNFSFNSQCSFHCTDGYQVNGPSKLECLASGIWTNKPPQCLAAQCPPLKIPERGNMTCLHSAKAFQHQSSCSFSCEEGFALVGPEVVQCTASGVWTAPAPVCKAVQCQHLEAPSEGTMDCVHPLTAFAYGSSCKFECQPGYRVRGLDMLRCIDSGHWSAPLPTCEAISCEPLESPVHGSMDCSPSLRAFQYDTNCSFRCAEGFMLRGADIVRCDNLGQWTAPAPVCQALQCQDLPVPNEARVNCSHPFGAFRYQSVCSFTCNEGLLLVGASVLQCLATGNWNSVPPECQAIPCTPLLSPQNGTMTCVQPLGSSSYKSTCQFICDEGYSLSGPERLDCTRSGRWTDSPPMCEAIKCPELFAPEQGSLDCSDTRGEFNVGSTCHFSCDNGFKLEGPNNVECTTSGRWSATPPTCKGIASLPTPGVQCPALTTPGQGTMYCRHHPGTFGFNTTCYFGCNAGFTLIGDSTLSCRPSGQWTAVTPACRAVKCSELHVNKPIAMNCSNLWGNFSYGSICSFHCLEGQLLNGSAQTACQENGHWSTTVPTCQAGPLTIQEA

T2: P-selectin fused to immunoglobulin (Psel-Ig) (UniProt P16109 42-771, limits assumed)
T2 construct: also called spiked P-selectin; not shown: immunoglobulin part of the fusion
T2 sequence (looked up): T1 sequence (looked up)

B1: D-succinimide of crizanlizumab (antibody, human IgG2, kappa)
heavy: QVQLVQSGAEVKKPGASVKVSCKVSGYTFTSYDINWVRQAPGKGLEWMGWIYPGDGSIKYNEKFKGRVTMTVDKSTDTAYMELSSLRSEDTAVYYCARRGEYGNYEGAMDYWGQGTLVTVSSASTKGPSVFPLAPCSRSTSESTAALGCLVKDYFPEPVTVSWNSGALTSGVHTFPAVLQSSGLYSLSSVVTVTSSNFGTQTYTCNVDHKPSNTKVDKTVERKCCVECPPCPAPPVAGPSVFLFPPKPKDTLMISRTPEVTCVVVDVSHEDPEVQFNWYVDGMEVHNAKTKPREEQFNSTFRVVSVLTVVHQDWLNGKEYKCAVSNKGLPAPIEKTISKTKGQPREPQVYTLPPSREEMTKNQVSLTCLVKGFYPSDIAVEWESNGQPENNYKTTPPMLDSDGSFFLYSKLTVDKSRWQQGNVFSCSVMHEALHNHYTQKSLSLSPGK
light 1: DIQMTQSPSSLSASVGDRVTITCKASQSVDYDGHSYMNWYQQKPGKAPKLLIYAASNLESGVPSRFSGSGSGTDFTLTISSLQPEDFATYYCQQSDENPLTFGGGTKVEIKRTVAAPSVFIFPPSDEQLKSGTASVVCLLNNFYPREAKVQWKVDNALQSGNSQESVTEQDSKDSTYSLSSTLTLSKADYEKHKVYACEVTHQGLSSPVTKSFNRGEC
light 2: B1 light 1
modifications: succinimide at position 32
notes: One light chain with succinimide, the other with aspartic acid at position 32; also called D-Succi-crizanlizumab
B2: hetero-iso-crizanlizumab (antibody, human IgG2, kappa)
heavy: B1 heavy
light 1: B1 light 1
light 2: B1 light 1
modifications: isoaspartic acid at position 32
notes: Aspartic acid at position 32 of only one light chain replaced by isoaspartic acid; also called iso-crizanlizumab (one light chain)
B3: isoD-succinimide of crizanlizumab (antibody, human IgG2, kappa)
heavy: B1 heavy
light 1: B1 light 1
light 2: B1 light 1
modifications: isoaspartic acid at position 32; succinimide at position 32
notes: One light chain with succinimide, the other with isoaspartic acid at position 32; also called isoD-Succi-crizanlizumab
B4: SEG101 (crizanlizumab), humanised monoclonal antibody against human P-selectin (antibody, human IgG2, kappa, V domains shown)
VH: QVQLVQSGAEVKKPGASVKVSCKVSGYTFTSYDINWVRQAPGKGLEWMGWIYPGDGSIKYNEKFKGRVTMTVDKSTDTAYMELSSLRSEDTAVYYCARRGEYGNYEGAMDYWGQGTLVTVSS
VL: DIQMTQSPSSLSASVGDRVTITCKASQSVDYDGHSYMNWYQQKPGKAPKLLIYAASNLESGVPSRFSGSGSGTDFTLTISSLQPEDFATYYCQQSDENPLTFGGGTKVEIKR
notes: also called SelG1; main peak
B5: homo-iso-crizanlizumab (antibody, human IgG2, kappa, V domains shown)
VH: B4 VH
VL: B4 VL
modifications: isoaspartic acid at position 32
notes: Aspartic acid at position 32 of both light chains replaced by isoaspartic acid; also called iso-crizanlizumab (both light chains)

Target: T1, recombinant human P-selectin
Assay: P-selectin binding assay of Example 2 (ELISA), relative %; CZE peak comprising the variant
Experimental: In the ELISA, potency and identity of SEG101 samples are measured based on their ability to bind recombinant human P-selectin. ELISA plates are coated with recombinant human P-selectin, and graded amounts of SEG101 are added. Bound SEG101 is quantified using an anti-human IgG antibody coupled to horseradish peroxidase followed by the addition of a colorimetric substrate. Results of the colorimetric reaction are measured by light absorption. The potency of a SEG101 test sample is quantified by comparing its ability to bind P-selectin to that of a SEG101 reference standard. The samples and the standard are normalized on the basis of protein content. Relative potency is calculated using a parallel line assay according to the European Pharmacopoeia. The final result is expressed as relative potency (in percent) of a sample compared to the reference standard.

Binder | P-selectin binding affinity [%]
B1 | 78%
B2 | 105%
B3 | 63%
B4 | 90%
B5 | 119%

Target: T2, P-selectin fused to immunoglobulin …
Assay: SPR competition: dilution series of crizanlizumab and any variants thereof inhibiting Psel-Ig binding to immobilised biotinylated GSP-6 (standard inhibition curve)
Experimental: An SPR-based method was used to measure ex vivo % P-selectin inhibition of crizanlizumab in human serum samples from human donors treated with crizanlizumab. This PD assay measured the ability of crizanlizumab and it variants in serum to block P-selectin (antigen; ligand) binding to PSGL-1 (ligand receptor). Blockage by crizanlizumab and any variants thereof was measured as % inhibition of spiked P-selectin fused to immunoglobulin (Psel-Ig) binding to glycosulfopeptide 6 (GSP-6), a peptide analogue mimicking the PSGL-1 binding domain. For example, streptavidin was immobilized on 2 channels (FC-2 and FC-3) of the used biosensor chip using standard amine coupling followed by injection of biotinylated GSP-6 to immobilize the peptide for analysis. A reference channel (FC-1) was prepared by biotin-blocking streptavidin. The pre-treatment samples established the maximum binding for each subject and this was used as the basis for calculating % inhibition using the post-dose serum samples from the subject at various time points. Quantified crizanlizumab and any variants thereof in a series of dilutions were used to generate standard inhibitition curve, showing an IC₅₀ value of 5.2 μg/mL for crizanlizumab under all conditions.

Binder | IC50
B4 | 5.2 µg/mL
